Results from PMC5291255.

Biological target: T1, nPfh1-K338A (His6-Trx-nPfh1-K338A-FLAG) (Schizosaccharomyces pombe, UniProt Q9UUA2 =MG+22-805, K338A;internal_change)
T1 sequence: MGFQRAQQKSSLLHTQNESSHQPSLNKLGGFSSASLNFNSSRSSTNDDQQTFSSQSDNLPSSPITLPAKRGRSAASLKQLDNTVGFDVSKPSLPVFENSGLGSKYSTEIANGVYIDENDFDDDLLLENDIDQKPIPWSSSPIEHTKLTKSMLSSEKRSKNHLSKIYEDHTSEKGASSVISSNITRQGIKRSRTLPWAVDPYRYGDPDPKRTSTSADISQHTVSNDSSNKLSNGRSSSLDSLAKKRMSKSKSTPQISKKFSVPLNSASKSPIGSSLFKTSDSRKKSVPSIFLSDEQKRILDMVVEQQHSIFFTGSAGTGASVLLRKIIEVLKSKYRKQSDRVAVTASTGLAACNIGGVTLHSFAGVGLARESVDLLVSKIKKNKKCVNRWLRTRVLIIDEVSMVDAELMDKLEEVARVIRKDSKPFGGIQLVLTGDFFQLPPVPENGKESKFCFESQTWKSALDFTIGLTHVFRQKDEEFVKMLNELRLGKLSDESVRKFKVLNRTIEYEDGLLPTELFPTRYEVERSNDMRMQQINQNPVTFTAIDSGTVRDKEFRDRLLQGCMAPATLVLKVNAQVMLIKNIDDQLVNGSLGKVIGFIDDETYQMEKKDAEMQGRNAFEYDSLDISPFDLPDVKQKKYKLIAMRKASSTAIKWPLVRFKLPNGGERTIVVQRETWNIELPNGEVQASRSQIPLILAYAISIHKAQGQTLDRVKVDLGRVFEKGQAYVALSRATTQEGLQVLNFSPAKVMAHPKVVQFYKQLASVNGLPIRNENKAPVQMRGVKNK
Assay: EMSA

B1: Poly(A)10 (ssDNA)
DNA: AAAAAAAAAA
B1: no binding.
